Here are results for 4 molecules from paper PMC3420917, “A Combinatorial Amino Acid Code for RNA Recognition by Pentatricopeptide Repeat Proteins” (PLoS Genetics, 2012).

Series [1] deals with T1, rPPR10 wild-type (maize, UniProt B8Y6I0 96-786).
T1 sequence: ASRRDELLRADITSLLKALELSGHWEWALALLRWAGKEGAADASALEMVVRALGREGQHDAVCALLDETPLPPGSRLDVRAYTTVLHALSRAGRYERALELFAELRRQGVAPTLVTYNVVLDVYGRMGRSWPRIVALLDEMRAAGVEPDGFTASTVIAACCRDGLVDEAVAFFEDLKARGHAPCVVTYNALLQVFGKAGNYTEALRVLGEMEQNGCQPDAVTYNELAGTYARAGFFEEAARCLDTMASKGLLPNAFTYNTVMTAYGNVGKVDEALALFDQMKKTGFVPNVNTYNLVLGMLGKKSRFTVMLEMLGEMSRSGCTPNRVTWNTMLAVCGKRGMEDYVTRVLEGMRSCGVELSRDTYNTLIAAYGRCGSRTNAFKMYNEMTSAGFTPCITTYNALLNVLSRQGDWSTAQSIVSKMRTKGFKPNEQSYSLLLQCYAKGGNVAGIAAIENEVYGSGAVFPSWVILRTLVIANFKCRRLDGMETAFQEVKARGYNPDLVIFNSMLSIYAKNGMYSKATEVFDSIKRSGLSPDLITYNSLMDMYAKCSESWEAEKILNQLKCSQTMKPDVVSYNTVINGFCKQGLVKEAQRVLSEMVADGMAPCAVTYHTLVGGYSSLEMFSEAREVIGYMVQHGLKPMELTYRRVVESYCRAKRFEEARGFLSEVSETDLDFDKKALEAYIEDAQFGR
Briefly: EMSA; EMSA: radiolabeled RNA 15 pM, protein 0, 5, 10, 20 nM; binding buffer and temperature by reference [12]; protein stock in 400 mM NaCl, 50 mM Tris-HCl pH 7.5, 5. Particulars: protein: recombinant; tags: MBP fusion removed by TEV cleavage; label: radiolabeled; single-stranded. (In general: A gel shift assay detects complexes by their altered migration in electrophoresis.)

For series [2], the target named is T2, PPR10 TD variant (maize, UniProt B8Y6I0 96-786, N284T;N319T;N349D).
T2 sequence: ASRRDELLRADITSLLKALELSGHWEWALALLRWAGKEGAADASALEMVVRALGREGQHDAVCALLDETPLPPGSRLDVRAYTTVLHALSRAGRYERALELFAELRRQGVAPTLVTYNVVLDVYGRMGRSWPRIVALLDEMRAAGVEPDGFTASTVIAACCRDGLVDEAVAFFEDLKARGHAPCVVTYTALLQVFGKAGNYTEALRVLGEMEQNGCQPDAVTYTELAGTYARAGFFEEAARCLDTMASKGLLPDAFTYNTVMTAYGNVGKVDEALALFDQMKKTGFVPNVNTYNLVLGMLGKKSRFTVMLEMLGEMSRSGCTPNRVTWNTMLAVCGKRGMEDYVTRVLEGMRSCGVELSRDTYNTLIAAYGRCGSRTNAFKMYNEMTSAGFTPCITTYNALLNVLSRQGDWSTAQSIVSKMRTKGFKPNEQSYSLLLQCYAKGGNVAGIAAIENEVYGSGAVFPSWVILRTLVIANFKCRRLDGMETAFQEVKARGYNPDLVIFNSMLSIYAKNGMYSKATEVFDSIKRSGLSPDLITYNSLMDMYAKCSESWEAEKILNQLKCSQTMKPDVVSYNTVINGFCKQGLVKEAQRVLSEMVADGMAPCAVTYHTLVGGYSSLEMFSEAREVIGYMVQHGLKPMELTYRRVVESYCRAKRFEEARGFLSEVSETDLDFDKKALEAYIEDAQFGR
Briefly: EMSA; high affinity; EMSA: radiolabeled RNA 15 pM, protein 0, 5, 10, 20 nM; binding buffer and temperature by reference [12]; protein stock in 400 mM NaCl, 50 mM Tris-HCl pH 7.5, 5. Particulars: protein: recombinant; tags: MBP fusion removed by TEV cleavage; label: radiolabeled; single-stranded.

In series [3] the target is T3, PPR10 TN variant (maize, UniProt B8Y6I0 96-786, N284T;D314N;N319T).
T3 sequence: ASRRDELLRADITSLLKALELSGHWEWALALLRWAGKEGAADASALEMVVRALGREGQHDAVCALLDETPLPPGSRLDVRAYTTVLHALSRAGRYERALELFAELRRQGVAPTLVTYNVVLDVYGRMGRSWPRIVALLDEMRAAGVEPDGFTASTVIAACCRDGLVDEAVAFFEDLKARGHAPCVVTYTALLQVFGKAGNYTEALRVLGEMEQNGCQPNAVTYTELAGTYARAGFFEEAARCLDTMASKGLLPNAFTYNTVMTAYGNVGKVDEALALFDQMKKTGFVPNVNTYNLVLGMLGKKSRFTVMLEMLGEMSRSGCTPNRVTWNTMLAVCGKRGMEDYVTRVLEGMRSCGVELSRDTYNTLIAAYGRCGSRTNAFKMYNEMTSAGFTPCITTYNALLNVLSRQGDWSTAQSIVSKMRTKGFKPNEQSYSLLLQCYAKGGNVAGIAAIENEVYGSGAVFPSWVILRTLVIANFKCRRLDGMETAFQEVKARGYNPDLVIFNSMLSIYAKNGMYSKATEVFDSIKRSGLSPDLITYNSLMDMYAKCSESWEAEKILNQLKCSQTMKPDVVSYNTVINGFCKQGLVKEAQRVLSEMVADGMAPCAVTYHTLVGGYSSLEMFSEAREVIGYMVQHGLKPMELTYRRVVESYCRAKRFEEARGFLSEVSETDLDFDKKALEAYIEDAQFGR
The series is described as above. Particulars: protein: recombinant; tags: MBP fusion removed by TEV cleavage; label: radiolabeled; single-stranded.

Series [4] concerns the target T2, PPR10 TD variant. Briefly: EMSA; EMSA: radiolabeled RNA 15 pM, protein 0, 5, 10, 20 nM; binding buffer and temperature by reference [12]; protein stock in 400 mM NaCl, 50 mM Tris-HCl pH 7.5, 5. Particulars: protein: recombinant; tags: MBP fusion removed by TEV cleavage; label: radiolabeled; single-stranded.
The target of series [5] is T3, PPR10 TN variant. The series is described as above. Particulars: protein: recombinant; tags: MBP fusion removed by TEV cleavage; label: radiolabeled; single-stranded.
Series [6] concerns the molecule itself. Briefly: AUC; sedimentation velocity; rPPR10 alone at 3, 6 and 12 µM; 20°C, 50,000 rpm, interference optics; 250 mM NaCl, 50 mM Tris-HCl pH 7.5, 5 mM ß-mercaptoethanol; monomer to dimer.

The stoichiometry N is the number of molecules, sites or subunits per partner or assembly.

GUAGGCUUAACCAUUUC (ssRNA) [GG RNA]: the binding result in series [1] is given as “no binding”; in series [2], “binds”.

In the case of GUAAACUUAACCAUUUC (ssRNA) [AA RNA], the binding result is recorded as “no binding” in series [1] and “binds” in series [3].

Turning to GUAUCCUUAACCAUUUC (ssRNA) [wild-type RNA (EMSA)], the binding result in series [4] and in series [5] was “no binding” throughout.

B1: Recombinant PPR10 (natural protein, maize, UniProt B8Y6I0 96-786, looked up)
chain: ASRRDELLRADITSLLKALELSGHWEWALALLRWAGKEGAADASALEMVVRALGREGQHDAVCALLDETPLPPGSRLDVRAYTTVLHALSRAGRYERALELFAELRRQGVAPTLVTYNVVLDVYGRMGRSWPRIVALLDEMRAAGVEPDGFTASTVIAACCRDGLVDEAVAFFEDLKARGHAPCVVTYNALLQVFGKAGNYTEALRVLGEMEQNGCQPDAVTYNELAGTYARAGFFEEAARCLDTMASKGLLPNAFTYNTVMTAYGNVGKVDEALALFDQMKKTGFVPNVNTYNLVLGMLGKKSRFTVMLEMLGEMSRSGCTPNRVTWNTMLAVCGKRGMEDYVTRVLEGMRSCGVELSRDTYNTLIAAYGRCGSRTNAFKMYNEMTSAGFTPCITTYNALLNVLSRQGDWSTAQSIVSKMRTKGFKPNEQSYSLLLQCYAKGGNVAGIAAIENEVYGSGAVFPSWVILRTLVIANFKCRRLDGMETAFQEVKARGYNPDLVIFNSMLSIYAKNGMYSKATEVFDSIKRSGLSPDLITYNSLMDMYAKCSESWEAEKILNQLKCSQTMKPDVVSYNTVINGFCKQGLVKEAQRVLSEMVADGMAPCAVTYHTLVGGYSSLEMFSEAREVIGYMVQHGLKPMELTYRRVVESYCRAKRFEEARGFLSEVSETDLDFDKKALEAYIEDAQFGR
notes: PPR10, maize chloroplast pentatricopeptide repeat protein (19 PPR motifs); mature PPR10 lacking the plastid targeting peptide; monomeric molecular weight of rPPR10 printed as 82.6 kDa; also called rPPR10
For the molecule B1, the “stoichiometry N” value in series [6] stood at 2.
